{
  "source": "paper PMC11445502",
  "about": "“CDK phosphorylation of Sfr1 downregulates Rad51 function in late-meiotic homolog invasions” (The EMBO Journal, 2024)",
  "molecules": {"B1": {"name": "Rad51 (untagged) (natural protein, S. pombe, UniProt P36601 1-365, looked up)", "chain": "MADTEVEMQVSAADTNNNENGQAQSNYEYDVNVQDEEDEAAAGPMPLQMLEGNGITASDIKKIHEAGYYTVESIAYTPKRQLLLIKGISEAKADKLLGEASKLVPMGFTTATEYHIRRSELITITTGSKQLDTLLQGGVETGSITELFGEFRTGKSQICHTLAVTCQLPIDMGGGEGKCLYIDTEGTFRPVRLLAVADRYGLNGEEVLDNVAYARAYNADHQLELLQQAANMMSESRFSLLVVDSCTALYRTDFSGRGELSARQMHLARFMRTLQRLADEFGIAVVITNQVVAQVDGISFNPDPKKPIGGNILAHSSTTRLSLRKGRGEQRICKIYDSPCLPESEAIFAINSDGVGDPKEIIAPV", "notes": "Rad51 recombinase, S. pombe, untagged, in pET-11d; Plasmid ordered from GeneUniversal or GeneCust; also called pET-11d rad51 (CMC99); recombinase Rad51; source: E. coli BL21 DE3, in cleared lysate"}},
  "key": {"Rad51 [1]": {"molecular_target": "Rad51 (UniProt P36601)", "test": "focus co-localisation on nuclear spreads", "conditions": "reference: EGFP-Sfr1 wild type; sites T73,T89,S109,S116,S147,T152,S165"}, "Rad51 [2]": {"molecular_target": "Rad51 (UniProt P36601)", "test": "GST pulldown from mixed bacterial lysates", "conditions": "reference: wild-type GST-Sfr1; sites T73,T89,S109,S116,S147,T152,S165"}, "GST-Sfr1-7A": {"molecular_target": "T1, GST-Sfr1-7A (S. pombe, UniProt Q9USV1 1-299, Thr73 to Ala | Thr89 to Ala | Ser109 to Ala | Ser116 to Ala | Ser147 to Ala | …)", "T1 construct": "Sfr1, S. pombe, all seven putative CDK sites changed to alanine; pGEX-4T-1 should put GST at the N-terminus (surmised); Partly degraded as m1; also called pGEX-4T-1 sfr1-7A (CMC102); source: E. coli BL21 DE3, in cleared lysate", "T1 sequence (looked up)": "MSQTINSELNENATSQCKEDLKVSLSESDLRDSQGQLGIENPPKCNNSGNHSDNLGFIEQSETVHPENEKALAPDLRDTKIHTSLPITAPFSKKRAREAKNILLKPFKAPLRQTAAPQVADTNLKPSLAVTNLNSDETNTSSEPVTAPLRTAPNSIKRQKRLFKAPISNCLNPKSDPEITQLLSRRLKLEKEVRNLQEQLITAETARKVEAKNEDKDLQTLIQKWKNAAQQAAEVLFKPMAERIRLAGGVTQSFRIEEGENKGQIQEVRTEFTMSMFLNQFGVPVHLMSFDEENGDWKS", "test": "pull-down; GST-Sfr1 lysates (~2 mg) and Rad51 extract (75 ug) from E. coli mixed, Glutathione Sepharose 4B, 1 h at 4 °C; pulldown buffer 25 mM HEPES-KOH pH 7.5, 150 mM NaCl, 3.5 mM MgCl2, 0.5 mM DTT, 0.05 mg/ml BSA, 10% glycerol, 0.05% Igepal; western blot anti-GST and anti-Rad51; Rad51/GST ratio quantified", "conditions": "partners not purified"}, "GST-Sfr1-WI": {"molecular_target": "T2, GST-Sfr1-WI (S. pombe, UniProt Q9USV1 1-299, Lys93 to Ala | Lys94 to Ala | Arg95 to Ala | Lys157 to Ala | Arg158 to Ala | …)", "T2 construct": "Sfr1, S. pombe, seven arginine and lysine residues of Site 1 and Site 2 changed to alanine; pGEX-4T-1 should put GST at the N-terminus (surmised); Partly degraded as m1; also called pGEX-4T-1 sfr1-WI (CMC98); source: E. coli BL21 DE3, in cleared lysate", "T2 sequence (looked up)": "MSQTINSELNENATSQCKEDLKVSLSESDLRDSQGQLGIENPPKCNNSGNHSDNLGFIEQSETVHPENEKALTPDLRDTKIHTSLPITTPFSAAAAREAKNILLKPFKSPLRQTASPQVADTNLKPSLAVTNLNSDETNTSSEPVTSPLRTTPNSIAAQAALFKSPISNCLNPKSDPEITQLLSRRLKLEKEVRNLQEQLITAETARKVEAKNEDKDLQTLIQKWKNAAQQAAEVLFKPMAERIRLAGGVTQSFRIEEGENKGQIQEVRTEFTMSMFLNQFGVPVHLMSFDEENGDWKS", "test": "pull-down; GST-Sfr1 lysates (~2 mg) and Rad51 extract (75 ug) from E. coli mixed, Glutathione Sepharose 4B, 1 h at 4 °C; pulldown buffer 25 mM HEPES-KOH pH 7.5, 150 mM NaCl, 3.5 mM MgCl2, 0.5 mM DTT, 0.05 mg/ml BSA, 10% glycerol, 0.05% Igepal; western blot anti-GST and anti-Rad51; Rad51/GST ratio quantified", "conditions": "partners not purified"}},
  "data": [
    {"molecule": "Sfr1 (from UniProt Q9USV1) EGFP-Sfr1-7D", "values": [
      {"measurement": "other: % of Rad51 foci co-localised with EGFP-Sfr1 foci", "setting": "Rad51 [1]", "value": "weaker; reference 78"}
    ]},
    {"molecule": "Sfr1 (from UniProt Q9USV1) EGFP-Sfr1-7A", "values": [
      {"measurement": "other: % of Rad51 foci co-localised with EGFP-Sfr1 foci", "setting": "Rad51 [1]", "value": "same; reference 78"}
    ]},
    {"molecule": "Sfr1 (from UniProt Q9USV1) GST-Sfr1-7A", "values": [
      {"measurement": "percent of reference", "setting": "Rad51 [2]", "value": 81, "unit": "%"}
    ]},
    {"molecule": "B1", "values": [
      {"measurement": "efficiency of binding compared to control GST-Sfr1 (Rad51/GST ratio)", "setting": "GST-Sfr1-7A", "value": 81, "unit": "%"},
      {"measurement": "efficiency of binding compared to control GST-Sfr1 (Rad51/GST ratio)", "setting": "GST-Sfr1-WI", "value": 17, "unit": "%"}
    ]}
  ]
}
